Here are results for 12 molecules from PMC5063997, “Engineered Tissue Inhibitor of Metalloproteinases-3 Variants Resistant to Endocytosis Have Prolonged Chondroprotective Activity*” (The Journal of Biological Chemistry, 2016).

Where only a bound is given, the exact number is not on record here.

In assay [1] the target is low density lipoprotein receptor-related protein 1 (LRP1), full-length (UniProt Q07954).
Assay [2] shares this target. This is another data set of the same source.
The target of assay [3] is T1, catalytic domain of MMP-2 (MMP-2ΔC) (UniProt P08253 110-444).
T1 construct: MMP-2, catalytic domain
T1 sequence (P08253 110-444, stated change not applied): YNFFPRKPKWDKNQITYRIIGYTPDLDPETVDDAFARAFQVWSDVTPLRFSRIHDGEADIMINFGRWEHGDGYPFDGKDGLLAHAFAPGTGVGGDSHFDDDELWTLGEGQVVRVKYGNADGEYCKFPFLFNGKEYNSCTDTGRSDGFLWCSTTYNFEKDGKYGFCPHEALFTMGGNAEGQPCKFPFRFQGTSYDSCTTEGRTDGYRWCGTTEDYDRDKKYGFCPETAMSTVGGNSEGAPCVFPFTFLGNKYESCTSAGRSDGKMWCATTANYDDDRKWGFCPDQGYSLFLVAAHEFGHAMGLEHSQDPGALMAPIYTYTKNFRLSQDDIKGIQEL
The experiment in a line: enzyme inhibition under equilibrium conditions (Ki(app), tight binding equation); apparent; metalloproteinase (0.5-1 nM) preincubated with wild-type or mutant TIMP-3 (0.25-25 nM) 1 h at 37 °C, residual activity on fluorescence-quenched substrates; 50 mM Tris-HCl pH 7.5, 150 mM NaCl, 10 mM CaCl2, 0.05% Brij 35, 0.02% NaN3. Conditions: both partners purified.

For assay [4], the target named is T2, catalytic domain of MMP-3 (MMP-3ΔC) (UniProt P08254 100-272).
T2 construct: MMP-3, catalytic domain
T2 sequence (P08254 100-272, stated change not applied): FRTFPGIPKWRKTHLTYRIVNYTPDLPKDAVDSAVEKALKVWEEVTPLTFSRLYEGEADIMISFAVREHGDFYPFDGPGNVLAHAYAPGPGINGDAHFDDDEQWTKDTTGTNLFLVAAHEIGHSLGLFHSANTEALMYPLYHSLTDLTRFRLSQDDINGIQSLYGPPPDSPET
The description is as above. Conditions: both partners purified.

Assay [5] concerns the target T3, ADAMTS-4 lacking the C-terminal spacer domain (UniProt O75173 213-685).
T3 construct: ADAMTS-4 without its C-terminal spacer domain
T3 sequence (looked up): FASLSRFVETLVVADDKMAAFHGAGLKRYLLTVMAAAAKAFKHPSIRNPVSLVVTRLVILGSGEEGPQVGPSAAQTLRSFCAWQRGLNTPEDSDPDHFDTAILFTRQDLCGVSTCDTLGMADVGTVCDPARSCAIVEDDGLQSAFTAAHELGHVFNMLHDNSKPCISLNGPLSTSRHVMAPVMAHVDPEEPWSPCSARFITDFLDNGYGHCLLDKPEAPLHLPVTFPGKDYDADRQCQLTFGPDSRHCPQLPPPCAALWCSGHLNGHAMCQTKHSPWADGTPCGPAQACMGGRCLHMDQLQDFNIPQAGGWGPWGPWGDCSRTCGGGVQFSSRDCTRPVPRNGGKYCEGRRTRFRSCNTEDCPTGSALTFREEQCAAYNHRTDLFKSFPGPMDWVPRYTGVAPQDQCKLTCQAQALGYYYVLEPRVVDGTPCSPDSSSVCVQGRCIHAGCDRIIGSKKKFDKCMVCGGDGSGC
Described as above. Particulars: both partners purified.

The target of assay [6] is T4, ADAMTS-5 lacking the C-terminal thrombospondin domain (UniProt Q9UNA0 262-874).
T4 construct: ADAMTS-5 without its C-terminal thrombospondin domain
T4 sequence (looked up): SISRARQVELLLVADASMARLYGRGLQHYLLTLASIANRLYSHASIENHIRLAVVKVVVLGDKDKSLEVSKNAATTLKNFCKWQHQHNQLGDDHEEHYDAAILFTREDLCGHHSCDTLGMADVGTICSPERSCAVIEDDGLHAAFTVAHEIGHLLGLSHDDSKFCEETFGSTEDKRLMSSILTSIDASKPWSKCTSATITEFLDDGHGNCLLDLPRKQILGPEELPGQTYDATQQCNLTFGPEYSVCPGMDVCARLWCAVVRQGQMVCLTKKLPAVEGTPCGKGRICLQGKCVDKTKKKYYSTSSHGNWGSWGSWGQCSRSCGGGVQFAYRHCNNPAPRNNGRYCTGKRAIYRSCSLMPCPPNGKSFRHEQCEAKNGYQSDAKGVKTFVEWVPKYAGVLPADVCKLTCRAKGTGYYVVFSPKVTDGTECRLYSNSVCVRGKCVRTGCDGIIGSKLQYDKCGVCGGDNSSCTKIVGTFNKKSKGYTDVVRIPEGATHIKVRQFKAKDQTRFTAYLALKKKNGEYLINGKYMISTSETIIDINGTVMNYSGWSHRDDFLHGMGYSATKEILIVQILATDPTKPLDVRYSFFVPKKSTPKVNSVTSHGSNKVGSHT
The description is as above. Particulars: both partners purified.

The target in assay [7] is T5, catalytic domain of MMP-1 (MMP-1ΔC) (UniProt P03956 100-269).
T5 construct: MMP-1, catalytic domain
T5 sequence (looked up): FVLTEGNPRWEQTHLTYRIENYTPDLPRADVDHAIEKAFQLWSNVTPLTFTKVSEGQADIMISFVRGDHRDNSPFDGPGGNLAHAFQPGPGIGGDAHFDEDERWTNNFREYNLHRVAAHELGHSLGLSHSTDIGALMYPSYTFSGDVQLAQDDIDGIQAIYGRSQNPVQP
Described as above. Particulars: both partners purified.

The target in another assay is T6, ADAM17 ectodomain (UniProt P78536 215-671).
T6 construct: ADAM17, ectodomain; source: gift from Professor Gillian Murphy (University of Cambridge)
The experiment in a line: enzyme inhibition under equilibrium conditions (Ki(app), tight binding equation); apparent; ADAM17 preincubated with wild-type or mutant TIMP-3 (0.25-25 nM) 1 h at 37 °C, residual activity on a fluorescence-quenched substrate; 50 mM Tris-HCl pH 7.5, 25 mM NaCl, 10 mM CaCl2, 0.05% Brij 35, 0.02% NaN3. Conditions: both partners purified.

Chain of low density lipoprotein receptor-related protein 1 (LRP1), full-length (Q07954 20-4544): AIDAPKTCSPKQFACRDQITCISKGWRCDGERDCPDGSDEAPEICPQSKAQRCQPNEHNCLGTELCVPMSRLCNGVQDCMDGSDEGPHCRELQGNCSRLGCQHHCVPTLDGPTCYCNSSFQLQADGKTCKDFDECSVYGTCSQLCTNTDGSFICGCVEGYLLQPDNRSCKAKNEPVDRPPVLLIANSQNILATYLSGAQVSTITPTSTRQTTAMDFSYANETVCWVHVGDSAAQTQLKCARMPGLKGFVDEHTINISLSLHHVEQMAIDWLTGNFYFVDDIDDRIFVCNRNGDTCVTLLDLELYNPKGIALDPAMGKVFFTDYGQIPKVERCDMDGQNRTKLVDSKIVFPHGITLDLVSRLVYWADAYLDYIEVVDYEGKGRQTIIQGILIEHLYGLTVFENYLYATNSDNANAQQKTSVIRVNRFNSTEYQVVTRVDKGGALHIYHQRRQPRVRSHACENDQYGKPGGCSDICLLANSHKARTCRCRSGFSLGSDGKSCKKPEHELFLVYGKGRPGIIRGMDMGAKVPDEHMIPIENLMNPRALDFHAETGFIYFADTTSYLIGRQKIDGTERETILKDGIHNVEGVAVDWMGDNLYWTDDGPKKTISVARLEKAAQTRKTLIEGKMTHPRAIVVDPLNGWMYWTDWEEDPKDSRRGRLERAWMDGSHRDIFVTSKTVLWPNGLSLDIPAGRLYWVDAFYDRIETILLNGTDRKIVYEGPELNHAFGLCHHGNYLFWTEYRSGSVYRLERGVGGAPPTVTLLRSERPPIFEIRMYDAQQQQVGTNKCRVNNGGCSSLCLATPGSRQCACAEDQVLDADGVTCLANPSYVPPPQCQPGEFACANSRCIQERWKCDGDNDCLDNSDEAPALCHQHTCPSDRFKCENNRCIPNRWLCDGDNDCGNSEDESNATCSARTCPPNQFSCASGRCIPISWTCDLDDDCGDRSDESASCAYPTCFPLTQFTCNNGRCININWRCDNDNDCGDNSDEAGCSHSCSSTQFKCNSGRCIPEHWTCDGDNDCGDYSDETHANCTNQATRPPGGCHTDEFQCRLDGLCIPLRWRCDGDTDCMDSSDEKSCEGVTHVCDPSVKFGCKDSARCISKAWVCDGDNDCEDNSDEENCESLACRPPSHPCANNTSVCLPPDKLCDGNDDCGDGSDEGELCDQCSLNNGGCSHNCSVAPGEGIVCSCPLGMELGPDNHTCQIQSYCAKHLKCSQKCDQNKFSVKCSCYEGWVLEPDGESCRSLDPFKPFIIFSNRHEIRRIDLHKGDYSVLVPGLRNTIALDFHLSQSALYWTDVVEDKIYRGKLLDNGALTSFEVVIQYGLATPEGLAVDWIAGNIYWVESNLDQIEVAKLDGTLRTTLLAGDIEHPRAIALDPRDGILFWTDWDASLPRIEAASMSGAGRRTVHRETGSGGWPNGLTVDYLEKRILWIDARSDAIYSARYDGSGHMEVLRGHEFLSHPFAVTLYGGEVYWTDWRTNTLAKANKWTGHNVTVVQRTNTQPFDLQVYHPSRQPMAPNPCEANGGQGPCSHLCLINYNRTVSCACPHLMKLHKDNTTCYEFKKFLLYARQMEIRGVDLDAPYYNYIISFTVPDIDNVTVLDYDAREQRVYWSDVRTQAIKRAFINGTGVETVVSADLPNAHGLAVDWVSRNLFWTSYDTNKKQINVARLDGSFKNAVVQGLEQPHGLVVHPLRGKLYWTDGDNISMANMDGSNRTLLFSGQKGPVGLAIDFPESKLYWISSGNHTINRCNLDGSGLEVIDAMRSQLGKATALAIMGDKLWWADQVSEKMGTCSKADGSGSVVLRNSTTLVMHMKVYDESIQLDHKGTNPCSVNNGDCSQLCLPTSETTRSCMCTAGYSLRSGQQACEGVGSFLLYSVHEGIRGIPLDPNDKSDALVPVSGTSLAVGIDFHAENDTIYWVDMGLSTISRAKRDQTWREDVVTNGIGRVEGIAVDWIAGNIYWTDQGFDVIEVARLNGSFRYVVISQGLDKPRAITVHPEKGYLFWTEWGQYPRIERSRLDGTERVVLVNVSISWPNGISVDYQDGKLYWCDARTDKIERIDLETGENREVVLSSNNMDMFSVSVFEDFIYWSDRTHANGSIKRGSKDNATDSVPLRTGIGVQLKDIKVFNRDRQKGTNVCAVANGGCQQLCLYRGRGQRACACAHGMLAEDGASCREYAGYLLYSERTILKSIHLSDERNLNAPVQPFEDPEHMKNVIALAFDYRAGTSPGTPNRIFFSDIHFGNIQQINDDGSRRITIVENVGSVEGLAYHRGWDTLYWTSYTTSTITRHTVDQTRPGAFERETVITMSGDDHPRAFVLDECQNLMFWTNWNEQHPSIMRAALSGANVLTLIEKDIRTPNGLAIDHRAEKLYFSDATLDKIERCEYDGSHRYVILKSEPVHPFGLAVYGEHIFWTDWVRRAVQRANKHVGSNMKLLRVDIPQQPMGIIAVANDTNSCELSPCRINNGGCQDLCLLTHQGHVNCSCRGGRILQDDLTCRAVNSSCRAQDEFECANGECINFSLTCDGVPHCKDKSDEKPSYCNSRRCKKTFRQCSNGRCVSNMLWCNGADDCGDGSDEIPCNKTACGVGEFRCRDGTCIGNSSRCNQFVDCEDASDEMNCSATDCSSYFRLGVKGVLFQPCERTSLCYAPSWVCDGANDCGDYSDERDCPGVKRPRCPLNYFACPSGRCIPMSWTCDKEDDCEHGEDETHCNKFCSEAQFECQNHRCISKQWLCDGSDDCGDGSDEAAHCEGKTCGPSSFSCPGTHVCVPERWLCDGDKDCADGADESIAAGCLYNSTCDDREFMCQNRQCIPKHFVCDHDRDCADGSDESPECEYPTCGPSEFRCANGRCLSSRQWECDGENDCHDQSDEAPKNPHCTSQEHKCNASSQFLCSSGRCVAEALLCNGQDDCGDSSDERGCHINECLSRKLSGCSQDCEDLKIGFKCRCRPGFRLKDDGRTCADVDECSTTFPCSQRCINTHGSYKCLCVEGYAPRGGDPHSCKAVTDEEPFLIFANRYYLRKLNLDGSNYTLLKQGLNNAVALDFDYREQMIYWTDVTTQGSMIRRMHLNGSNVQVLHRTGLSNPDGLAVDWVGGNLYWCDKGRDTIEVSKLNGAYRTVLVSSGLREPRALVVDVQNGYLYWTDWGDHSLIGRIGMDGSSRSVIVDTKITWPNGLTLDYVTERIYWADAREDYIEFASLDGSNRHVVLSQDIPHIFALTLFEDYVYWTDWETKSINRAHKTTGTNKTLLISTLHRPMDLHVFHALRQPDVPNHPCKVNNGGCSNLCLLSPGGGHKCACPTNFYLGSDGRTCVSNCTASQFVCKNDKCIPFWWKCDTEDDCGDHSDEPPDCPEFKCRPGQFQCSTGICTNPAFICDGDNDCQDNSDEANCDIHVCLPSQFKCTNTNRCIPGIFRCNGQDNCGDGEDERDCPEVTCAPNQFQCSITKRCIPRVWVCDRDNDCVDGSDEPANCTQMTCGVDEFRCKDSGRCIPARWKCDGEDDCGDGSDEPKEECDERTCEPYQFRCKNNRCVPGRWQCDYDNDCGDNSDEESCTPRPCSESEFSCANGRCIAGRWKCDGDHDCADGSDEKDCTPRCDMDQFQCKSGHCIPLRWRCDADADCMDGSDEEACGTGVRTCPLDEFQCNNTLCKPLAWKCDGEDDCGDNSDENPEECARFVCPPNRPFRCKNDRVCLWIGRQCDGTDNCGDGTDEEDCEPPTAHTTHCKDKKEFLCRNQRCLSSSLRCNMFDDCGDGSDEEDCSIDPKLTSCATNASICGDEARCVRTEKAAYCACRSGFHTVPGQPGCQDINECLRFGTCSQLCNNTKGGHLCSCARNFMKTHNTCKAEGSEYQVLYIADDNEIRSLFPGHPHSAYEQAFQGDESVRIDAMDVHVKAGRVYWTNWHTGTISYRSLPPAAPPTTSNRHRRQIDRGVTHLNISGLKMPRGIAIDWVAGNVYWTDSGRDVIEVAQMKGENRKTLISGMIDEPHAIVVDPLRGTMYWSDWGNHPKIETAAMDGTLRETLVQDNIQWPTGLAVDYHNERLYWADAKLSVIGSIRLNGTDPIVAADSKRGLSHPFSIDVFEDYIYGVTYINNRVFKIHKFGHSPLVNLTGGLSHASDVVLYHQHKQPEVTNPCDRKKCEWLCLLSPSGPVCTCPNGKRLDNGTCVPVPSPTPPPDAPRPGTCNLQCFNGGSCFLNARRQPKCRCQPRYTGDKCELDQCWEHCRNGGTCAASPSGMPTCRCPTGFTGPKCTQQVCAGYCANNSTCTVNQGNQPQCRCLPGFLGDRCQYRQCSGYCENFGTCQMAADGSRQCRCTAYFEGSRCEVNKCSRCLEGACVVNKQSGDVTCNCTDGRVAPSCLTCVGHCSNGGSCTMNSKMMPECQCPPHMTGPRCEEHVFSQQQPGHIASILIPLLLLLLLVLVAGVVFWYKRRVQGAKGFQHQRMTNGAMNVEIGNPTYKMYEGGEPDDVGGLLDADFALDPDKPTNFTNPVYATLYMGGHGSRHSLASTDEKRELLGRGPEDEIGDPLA

B1: TIMP-3 K22A/K110A, C-terminally FLAG-tagged (natural protein)
chain: CTCSPSHPQDAFCNSDIVIRAAVVGKKLVKEGPFGTLVYTIKQMKMYRGFTKMPHVQYIHTEASESLCGLKLEVNKYQYLLTGRVYDGKMYTGLCNFVERWDQLTLSQRAGLNYRYHLGCNCKIKSCYYLPCFVTSKNECLWTDMLSNFGYPGYQSKHYACIRQKGGYCSWYRGWAPPDKSIINATDP
As to B1, in assay [1], the percentage remaining in the medium of HTB94 chondrosarcoma cells after 24 h (1 nM, anti-FLAG immunoblot and densitometry) was > 50%.

B2: TIMP-3 K71A, C-terminally FLAG-tagged (natural protein)
chain: CTCSPSHPQDAFCNSDIVIRAKVVGKKLVKEGPFGTLVYTIKQMKMYRGFTKMPHVQYIHTEASESLCGLALEVNKYQYLLTGRVYDGKMYTGLCNFVERWDQLTLSQRKGLNYRYHLGCNCKIKSCYYLPCFVTSKNECLWTDMLSNFGYPGYQSKHYACIRQKGGYCSWYRGWAPPDKSIINATDP
On to B2, for which the half-life of loss from the medium of HTB94 chondrosarcoma cells (1 nM, 0-24 h, anti-FLAG immunoblot and densitometry) in assay [2] stood at 12.9 h.

B3: TIMP-3 K71A/K157A, C-terminally FLAG-tagged (natural protein)
chain: CTCSPSHPQDAFCNSDIVIRAKVVGKKLVKEGPFGTLVYTIKQMKMYRGFTKMPHVQYIHTEASESLCGLALEVNKYQYLLTGRVYDGKMYTGLCNFVERWDQLTLSQRKGLNYRYHLGCNCKIKSCYYLPCFVTSKNECLWTDMLSNFGYPGYQSAHYACIRQKGGYCSWYRGWAPPDKSIINATDP
B3: the percentage remaining in the medium of HTB94 chondrosarcoma cells after 24 h (1 nM, anti-FLAG immunoblot and densitometry) in assay [1] was > 50%.

B4: TIMP-3 K22A/K157A, C-terminally FLAG-tagged (natural protein)
chain: CTCSPSHPQDAFCNSDIVIRAAVVGKKLVKEGPFGTLVYTIKQMKMYRGFTKMPHVQYIHTEASESLCGLKLEVNKYQYLLTGRVYDGKMYTGLCNFVERWDQLTLSQRKGLNYRYHLGCNCKIKSCYYLPCFVTSKNECLWTDMLSNFGYPGYQSAHYACIRQKGGYCSWYRGWAPPDKSIINATDP
Turning to B4, the percentage remaining in the medium of HTB94 chondrosarcoma cells after 24 h (1 nM, anti-FLAG immunoblot and densitometry) in assay [1] is > 50%.

B5: TIMP-3 K157A, C-terminally FLAG-tagged (natural protein)
chain: CTCSPSHPQDAFCNSDIVIRAKVVGKKLVKEGPFGTLVYTIKQMKMYRGFTKMPHVQYIHTEASESLCGLKLEVNKYQYLLTGRVYDGKMYTGLCNFVERWDQLTLSQRKGLNYRYHLGCNCKIKSCYYLPCFVTSKNECLWTDMLSNFGYPGYQSAHYACIRQKGGYCSWYRGWAPPDKSIINATDP
As for B5, in assay [2], the half-life of loss from the medium of HTB94 chondrosarcoma cells (1 nM, 0-24 h, anti-FLAG immunoblot and densitometry) turned out to be 7.8 h.

B6: TIMP-3 K30A/K52A, C-terminally FLAG-tagged (natural protein)
chain: CTCSPSHPQDAFCNSDIVIRAKVVGKKLVAEGPFGTLVYTIKQMKMYRGFTAMPHVQYIHTEASESLCGLKLEVNKYQYLLTGRVYDGKMYTGLCNFVERWDQLTLSQRKGLNYRYHLGCNCKIKSCYYLPCFVTSKNECLWTDMLSNFGYPGYQSKHYACIRQKGGYCSWYRGWAPPDKSIINATDP
Consider B6, for which the percentage remaining in the medium of HTB94 chondrosarcoma cells after 24 h (1 nM, anti-FLAG immunoblot and densitometry) in assay [1] is > 50%.

B7: TIMP-3 K30A/K76A, C-terminally FLAG-tagged (natural protein)
chain: CTCSPSHPQDAFCNSDIVIRAKVVGKKLVAEGPFGTLVYTIKQMKMYRGFTKMPHVQYIHTEASESLCGLKLEVNAYQYLLTGRVYDGKMYTGLCNFVERWDQLTLSQRKGLNYRYHLGCNCKIKSCYYLPCFVTSKNECLWTDMLSNFGYPGYQSKHYACIRQKGGYCSWYRGWAPPDKSIINATDP
Consider B7, for which the percentage remaining in the medium of HTB94 chondrosarcoma cells after 24 h (1 nM, anti-FLAG immunoblot and densitometry) in assay [1] is > 50%.

B8: TIMP-3 K42A/K157A, C-terminally FLAG-tagged (natural protein)
chain: CTCSPSHPQDAFCNSDIVIRAKVVGKKLVKEGPFGTLVYTIAQMKMYRGFTKMPHVQYIHTEASESLCGLKLEVNKYQYLLTGRVYDGKMYTGLCNFVERWDQLTLSQRKGLNYRYHLGCNCKIKSCYYLPCFVTSKNECLWTDMLSNFGYPGYQSAHYACIRQKGGYCSWYRGWAPPDKSIINATDP
Turning to B8, the percentage remaining in the medium of HTB94 chondrosarcoma cells after 24 h (1 nM, anti-FLAG immunoblot and densitometry) in assay [1] is > 50%.

B9: TIMP-3 K45A/K89A, C-terminally FLAG-tagged (natural protein)
chain: CTCSPSHPQDAFCNSDIVIRAKVVGKKLVKEGPFGTLVYTIKQMAMYRGFTKMPHVQYIHTEASESLCGLKLEVNKYQYLLTGRVYDGAMYTGLCNFVERWDQLTLSQRKGLNYRYHLGCNCKIKSCYYLPCFVTSKNECLWTDMLSNFGYPGYQSKHYACIRQKGGYCSWYRGWAPPDKSIINATDP
For the molecule B9, the percentage remaining in the medium of HTB94 chondrosarcoma cells after 24 h (1 nM, anti-FLAG immunoblot and densitometry) in assay [1] is > 50%.

B10: TIMP-3 K42A, C-terminally FLAG-tagged (natural protein)
chain: CTCSPSHPQDAFCNSDIVIRAKVVGKKLVKEGPFGTLVYTIAQMKMYRGFTKMPHVQYIHTEASESLCGLKLEVNKYQYLLTGRVYDGKMYTGLCNFVERWDQLTLSQRKGLNYRYHLGCNCKIKSCYYLPCFVTSKNECLWTDMLSNFGYPGYQSKHYACIRQKGGYCSWYRGWAPPDKSIINATDP
In turn, B10 came in with a half-life of loss from the medium of HTB94 chondrosarcoma cells (1 nM, 0-24 h, anti-FLAG immunoblot and densitometry) in assay [2] of 8.8 h.

B11: TIMP-3 K27A/K45A, C-terminally FLAG-tagged (natural protein)
chain: CTCSPSHPQDAFCNSDIVIRAKVVGKALVKEGPFGTLVYTIKQMAMYRGFTKMPHVQYIHTEASESLCGLKLEVNKYQYLLTGRVYDGKMYTGLCNFVERWDQLTLSQRKGLNYRYHLGCNCKIKSCYYLPCFVTSKNECLWTDMLSNFGYPGYQSKHYACIRQKGGYCSWYRGWAPPDKSIINATDP
Consider B11, for which the percentage remaining in the medium of HTB94 chondrosarcoma cells after 24 h (1 nM, anti-FLAG immunoblot and densitometry) in assay [1] is > 50%.

B12: TIMP-3 K26A/K45A, C-terminally FLAG-tagged (natural protein, UniProt P35625 24-211, looked up)
chain: CTCSPSHPQDAFCNSDIVIRAKVVGAKLVKEGPFGTLVYTIKQMAMYRGFTKMPHVQYIHTEASESLCGLKLEVNKYQYLLTGRVYDGKMYTGLCNFVERWDQLTLSQRKGLNYRYHLGCNCKIKSCYYLPCFVTSKNECLWTDMLSNFGYPGYQSKHYACIRQKGGYCSWYRGWAPPDKSIINATDP
notes: TIMP-3, secreted into the conditioned medium; source: for the screen also transiently transfected, conditioned medium dialyzed against TBS; not shown: FLAG, C-terminal, kept
Take B12: the Ki in assay [3] stood at 0.63 nM; in assay [4], 0.92 nM; in assay [5] it was 0.12 nM; in assay [6] it was 0.95 nM; in assay [7] it was 0.52 nM; with ADAM17 ectodomain, 3.78 nM.
